Experiment: soluble on expression in E. coli; label from the status in PepcDB or PDB records

Row | Sequence | soluble on expression in E. coli
1 | MKYGYFDNDNREYVITRPDVPAPWTNYLGTEKFCTVISHNAGGYSFYNSPEYNRVTKFRPNATFDRPGHYVYLRDDDSGDYWSISWQPVAKSLDEAQYQIRHGLSYSKFQCDYNGIHARKTLFVPKGEDAEIWDVVIKNTSDQVRTISAFSFVEFSFSHIQSDNQNHQMSLYSAGTAYRPGLIEYDLYYNTDDFEGFYYLASTFDPDSYDGQRDRFLGLYRDEANPLAVEQGRCSNSAQTCYNHCGSLHKQFTLQPGEEIRFAYILGIGKGNGERLREHYQDVANIDAAFAAIKAHWDERCAKFQVKSPNQGLDTMINAWTLYQAETCVVWSRFASFIEVGGRTGLGYRDTAQDAISVPHANPEMTRKRIVDLLRGQVKAGYGLHLFDPDWFDPEKEDVAPSKSPTVVPTPSDEDKIHGIKDTCSDDHLWLIPTICKYVMETGETSFFDQMIPYADGGEASVYEHMKAALDFSAEYVGQTGICKGLRADWNDCLNLGGGESSMVSFLHFWALQEFIDLAKFLGKDQDVNTYTEMAANVREACETHLWDDEGGWYIRGLTKNGDKIGTAQQQEGRVHLESNTLAVLSGLASQERGEQAMDAVDEHLFSPYGLHLNAPSFSTPNDDIGFVTRVYQGVKENGAIFSHPNPWAWVAETKLGRGDRAMKFYDALNPYNQNDIIEKRIAEPYSYVQFIMGRDHQDHGRANHPWLTGTSGWAYFAVTNYILGVQSGFTGLSVDPCIPSDWPGFEVTRQWRGATYHIQVENPDHVSKGVKSITLNGAPIQGRIPPQAQGSDNQVVVVLGHHHHHH | soluble
2 | MSLKSKEKLFIANVADSNLNEADKDKAKNEIAKLNASQVVATTLASSVRETEKQEKIETDICNENAISESKLDGIDDLEFVDENYYISPSLDTLATLSKYEIQKVENLVVGNKQYGKIEFLDPVDLSDIPLGSICDDLVVFQPMSVLLYNNSTNVPEKGKGLNVRARISCYNCYPLDKSTRKPIKDPNHRIMERYSEKLKKIPHTHFESYDPASGTYCFTVDHALEGHHHHHH | soluble
3 | MGSDKIHHHHHHMASQRGDTKLQLLRDTSLSHDGLNHTILTLNQLLHQRAPFYGEHLSATTSPTGLSFDEWSCADTYQKLIARFAIAHPSAENQTETKTENETETDKTAATSRTPAFASKSALVSKNAVPSRKDTRKALHSLWGQWYFGLLVPPMMEWIFNAPKTDVETLHWQPQSVFMQVHPSGRVAKFEFKIAKYQPITALTFKKHHGIEPLSRTNTKPSIKIDTEVHSPLSPYKPSVDKELVLQGFILNLLQSSVDRLLTLSPVPAKLYWSHLGYLIHWYLGELGLSQQQNQQLKQALFRRTTFLDGSTNPLYNSINLLIEPEQDSATPYTVARIVTSTASRSKPSPKIHCIRRTCCLRYQLANTGQCHDCPLLSRAKVNVNATKQT | not soluble
4 | NRGVTGGFGITQDITERKKVEEALRISNIYNRSLIEASPDPLVTIGQDGKITDVNNSTETVTGYSRDELIGTDFSDYFTEPERAKKGYQHVFLKGFVKDYPLEIQHKDGRVTQVLYNASVYRDESGEVIGVFAAARD | not soluble
5 | MYILVENAVTSKQLVTGVRTEPHYRYAGYYLKAYEIVANQERDKTKYESLEPAIKALFTLDSEHEKKVRTQLENLKLLTKFKFTGIYTESVDRYNKAVVLQDKGKTEDAETATTNAQT | not soluble
6 | MGHHHHHHHHHHSSGHIDDDDKHMYTKIIGTGSYLPEQVRTNADLEKMVDTSDEWIVTRTGIRERHIAAPNETVSTMGFEAATRAIEMAGIEKDQIGLIVVATTSATHAFPSAACQIQSMLGIKGCPAFDVAAACAGFTYALSVADQYVKSGAVKYALVVGSDVLARTCDPTDRGTIIIFGDGAGAAVLAASEEPGIISTHLHADGSYGELLTLPNADRVNPENSIHLTMAGNEVFKVAVTELAHIVDETLAANNLDRSQLDWLVPHQANLRIISATAKKLGMSMDNVVVTLDRHGNTSAASVPCALDEAVRDGRIKPGQLVLLEAFGGGFTWGSALVRF | soluble
7 | SLDWQKGMNSAIDYIEKNLTGNVNVRTAAGFVGCSTWEFQRIFSFLTHIPLSEYIRQRKLTLAAQEIKDNDVKIIDIALKYGYESPAAFSRAFNKLFGIAPSSVRNTENNLKTYPRITFEKIENERLIKMSRFSERGYVVRENGPVYFTKDMDKTVKWFEEILGWSGDIVARDDEGFGDYGCVFDYPSEVAVAHLTPFRGFHLFKGEPIKGVAGFMMIEGIDALHKYVKENGWDQISDIYTQPWGARECSITTTDGCILRFFESIQEG | soluble
8 | MAKASSSFVCQNCGAAFNRWQGKCEACGEWNTLVEEAGDNAVPVSIRAKRRGRTFKLESLAGKSNDAPRLPSGMAELDRVTGGGFVRGSVLLVGGDPGIGKSTLLTQATSLMAKAGHRTVYISGEEAIAQVRLRAERLGLASAPVELAAETSVEDIVATLSEGATPKLIVIDSIQTMWTDTVESAPGTVTQVRASAQALIRFAKKTGAAIILVGHVTKDGQIAGPRVVEHMVDAVLSFEGEGSQQFRILRSVKNRFGPTDEIGVFEMTGLGLREVSNPSELFLSERDLGSPGTAVFAGIEGTRPVLVELQALVAPSTLGTPRRAVVGWDSARLSMVLAVLEAHCGVKLSGYDVYFNVAGGLRINEPAADLAAAAALVSSLANAPLPTDAVYFGEISLSGAVRPVAQTPARLKEAAKLGFARAVLPEQTRGEAPADAGLALQSVGGLSSLVADIAARGTRRGDDDGAPRTKAASNATPARFRRQEALEHHHHHH | soluble
9 | DYNASDMKVVSLRTKDNLHLKSWYKPASKHRPTILYLHGNAGHIGYRMPLVREFIDAGLGVFLLEYRGYGGNPGKPGEKGLYEDGETAIEFLIQHGVPSKRVILYGESIGTGVATHLATKYPVCAVILQSPFTSLTRLAQYHYPLNFLKPWDQYNSLARMKKINAPILVLHGKLDQIVPYQEGLNVFNEANEPKKMVSFDDKEHNDLWSADNFSREIIQFALNQCS | not soluble
10 | MAKKKKEILFCDYYEDWVETYKVGAIEDVTLNKYYVAARQLRDICPKLLMSDFSRKDYQLIMNEYGKTHEKQTAKDFHHHIKAAILDAYHDGLLKSDPTYRAVIKGKELEHHHHHH | not soluble
11 | MRIEQELKLGFKDVLFRPKRSTLKSRSQVNLTREFTFKHSGRQWSGVPVIAANMDSVGSFAMAKALAEHGVMTAVHKHYTVADWAEFVKSADKATLNNVMVSTGTSEADFQKTKDVMALSDELIFICIDIANGYSEHLVEYVQRVRAAFPDKVISAGNVVTGDMVEELILAGADIVKVGIGPGSVCTTRVKTGVGYPQLSAIIECADAAHGLGGRIIGDGGCTCPGDVAKAFGGGADFVMLGGMLAGHEEAGGELIVKDGETFMKFYGMSSKSAMDKHSGGVAGYRAAEGKTVLLPYRGSVHGTIQDILGGVRSTCTYVGAAELRELTKRTTFIRVQEQENNVYGRE | soluble
12 | MGSDKIHHHHHHMTERIDFTKSEQYTLSIRLSADGFSFSIYNPLTDNDFCFVPHPVNTGYSMTANLKDMLTKTEALKYPYKRVNILYDSPRFTPVPLELFEDEQMDTIFYHNFPKAKGNNEIVLCNVLGRSNVVILFAMDKHTHLLLTEHFPTARFFSTASPLTEYFARKSRLGNSRKLYTYIREQQMEVFCFDKGNLLLINSFPCKQTTDRVYYLLYVWQQLNYNQERDELHLTGILKDKEELLKELRNYLRQVFVISPKAEFNRSEISKIEEIPFDMQTLLLCE | not soluble
13 | HSDPARRGQLSVCDSISEWVTAADKKTAVDMSGGTVTVLEKVPVSKGQLKQYFYETKCNPMGYTKEGCRGIDKRHWNSQCRTTQSYVRALTMDSKKRIGWRFIRIDTSCVCTLTIKRGR | soluble
14 | MALFGKKSSDSSKSVAVPKAFTIQIDPSKFNLATKPSGPVHEQLETLKQKLTKLSSNVENNLMLVIRASTKKDKALASSAFEFDERYIQKGKFEVEYLTLAYLNFQQLDEADRKTVAHARMILKELERIAQFCLNIADKTEYIQLANIQVLHKDEYDLKLMGDDTAEMIKKAVEAFVSGNSKHATETLDMMKKIDDLYQKAVAKLKAEVNDSNIINSTGILSVVEHVHTCAEISCAIARHFC | soluble
15 | MGHHHHHHSHLKKNEQNFKLAGVKKDIEKLYEAVPQLSNVFKIEDKIGEGTFSSVYLATAQLQVGPEEKIALKHLIPTSHPIRIAAELQCLTVAGGQDNVMGVKYCFRKNDHVVIAMPYLEHESFLDILNSLSFQEVREYMLNLFKALKRIHQFGIVHRDVKPSNFLYNRRLKKYALVDFGLAQGTHDTKIELLKFVQSEAQQERCSQNKSHIITGNKIPLSGPVPKELDQQSTTKASVKRPYTNAQIQIKQGKDGKEGSVGLSVQRSVFGERNFNIHSSISHESPAVKLMKQSKTVDVLSRKLATKKKAISTKVMNSAVMRKTASSCPASLTCDCYATDKVCSICLSRRQQVAPRAGTPGFRAPEVLTKCPNQTTAIDMWSAGVIFLSLLSGRYPFYKASDDLTALAQIMTIRGSRETIQAAKTFGKSILCSKEVPAQDLRKLCERLRGMDSSTPKLTSDIQGHASHQPAISEKTDHKASCLVQTPPGQYSGNSFKKGDSNSCEHCFDEYNTNLEGWNEVPDEAYDLLDKLLDLNPASRITAEEALLHPFFKDMSL | not soluble
16 | MGSDKIHHHHHHMKLSFEVLEALDAIDRAGTFAEAAVLIHRVPSALSYLVQKAESDLGVILFDRSGRRAQLTEAGRLLVEDGRRLLQAGRELESKVRGVHAGWEAELRLCLDEILPLPSLWPHVRAFYDMELTTRLRLSTEVLGGVWDALVTGRADIAIGAAGEPPHAPNIAARPIGLLRHVFVVAPHHPLAAVEQPLDSDTISSHRGVIISDTSRALEPRSVAIHDGQPVIIVPTLAAKLDLLCEGMAVGMLPAPVVEEAIRQGKLVERRVIGVRDHTTCYLGWREDKTGRALKWWINRLDQIDLISTLFSTRGVAA | not soluble
17 | MAIAKTDVLKFTTEVQPIGKQQYMELSKDIFVFSYLCGGINFTDIANLTNENIQNGRLHYIRQKTKKPIKIGIPQEAMQIIEKYSKESKGYLFPILDSKIHKTALQKQNRIHKILGKVNKNLKLLAAQLGVEANLTTYVARHSFASVLKKSGVNIALISEALGHSDLATTQIYLDSFDNEQVDEAMRNLLEHHHHHH | not soluble
18 | MRSANHSELSNALLAISQSLADRSQLTQTLDAVLTAARQMTLAKHGIIYVLDQTGQALIPSTAHHNDKTIVSHPWEALQIDSASENDPFNFAIRNGEVVLINELYKYKGYDCESIYQTEQTLGLKSENLLAWPLIDSESKTIGLLVLLDLNVIDNEAALTEFCRMAASNIRQAVWLEQ | not soluble
19 | KERPEISLPSDFEHTIHVGFDAVTGEFTGMPEQWARLLQTSNITKSEQKKNPQAVLDVLEFYNSKKTSNSQKYMSFTDKS | soluble
20 | MGSWGMEALESDEGLDLINWVEEQLQDDSTFDAESIVQRLSQHEDLFGFQGDEEFLYDNNVIGLVELIIQKAAGEKITSSKQIDQLDSYRLTSIFSKKLQGRLQTIDDTHEWIMLFEGRAREKAKAYLIEITDKLRVVKTTA | soluble
21 | MGSDKIHHHHHHMVSRRISEIPISKTMELDAKAKALIKKGEDVINLTAGEPDFPTPEPVVEEAVRFLQKGEVKYTDPRGIYELREGIAKRIGERYKKDISPDQVVVTNGAKQALFNAFMALLDPGDEVIVFSPVWVSYIPQIILAGGTVNVVETFMSKNFQPSLEEVEGLLVGKTKAVLINSPNNPTGVVYRREFLEGLVRLAKKRNFYIISDEVYDSLVYTDEFTSILDVSEGFDRIVYINGFSKSHSMTGWRVGYLISSEKVATAVSKIQSHTTSCINTVAQYAALKALEVDNSYMVQTFKERKNFVVERLKKMGVKFVEPEGAFYLFFKVRGDDVKFCERLLEEKKVALVPGSAFLKPGFVRLSFATSIERLTEALDRIEDFLNSR | soluble
22 | MEVEAFAHSVAPLAPRLKRVAYSILDDEEAAADVSQEALMRLWINRERLGGYDSIEAVAVTTARRIALDMLRKEGRMEPLPDDLPFSDHAPTPQGVLEQSETMRLVEAAIEALPPLQRMTFRLKEIEGYESEVIARLVGVKVEAVYTNLSRARRALRTALALQLKR | not soluble
